Measurements: patent publication US20210171950, “METHOD OF PRODUCING AN APTAMER AND USES THEREOF” (City University of Hong Kong, published 2021)

Target: T1, RHAU53 peptide (DHX36/RHAU residues 53-106 as printed) (UniProt Q9H2U1 SEQ:1-53)
T1 sequence: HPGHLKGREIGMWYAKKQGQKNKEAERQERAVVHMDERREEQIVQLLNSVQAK
Experiment: EMSA; 80 nM RHAU53, 2 nM FAM-D-TERRA; 25 mM Tris-HCl pH 7.5, 150 mM KCl, 1 mM MgCl2, 37 C; gel with 40 mM KOAc; complex formation inhibited by L-RNA Ap3-7 (SEQ 19, binds the TERRA RNA) with IC50 937.1±1.7 nM
Details: tags: peptide obtained from OriGene; label: 5'FAM; G4 (3 G-quartets, UUA loops)
Experimental: L-RNA Ap3-7 and S′FAM labelled D-RNA TERRA were heated at 75° C. for 3 minutes and cooled down separately. Then, reaction mixtures containing 2 nM 5′FAM labelled D-TERRA, 25 mM Tris-HCl (pH 7.5), 150 mM KCl and 1 mM MgCl₂ were prepared. Corresponding amount of L-Ap3-7 and 80 nM RHAU53 were premixed, then added to the specific samples and incubated at 37° C. for 30 minutes. The final samples were loaded onto a native PAGE (6%, 49:1), containing 40 mM KOAc, 1 mM MgCl₂ and 0.5×TBE (pH 8.3), and run at 30 mA for 75 minutes.
To study if L-Ap3-7 can compete with rG4-binding protein and inhibit the D-TERRA rG4-protein complex formation, the inventors have tested it with RHAU53 peptide. Particularly, L-RNA Ap3-7 and S′FAM labelled D-RNA TERRA were heated at 75° C. for 3 minutes and cooled down separately. Then, reaction mixtures containing 2 nM 5′FAM labelled D-TERRA, 25 mM Tris-HCl (pH 7.5), 150 mM KCl and 1 mM MgCl₂ were prepared. Corresponding amount of L-Ap3-7 and 80 nM RHAU53 were premixed, then added to the specific samples and incubated at 37° C. for 30 minutes. The final samples were loaded onto a native PAGE (6%, 49:1), containing 40 mM KOAc, 1mM MgCl₂ and 0.5 X TBE (pH 8.3), and run at 30 mA for 75 minutes. […]

UUAGGGUUAGGGUUAGGGUUAGGG (ssRNA) [D-TERRA rG4]: binds.
